Assay results: patent US20260274896A1 (ICHIMARU PHARCOS, published 2026)
*1 amine or outer side, *2 acyl side, *3 side chain or, on linkers, in order; H or OH if unused. Bridges are numbered along the chain shown (N, C = ends). [ ]: non-standard residue; d: D form. TBMB = c1c(C[*:1])cc(C[*:3])cc1C[*:2]; NMeY = CN[C@@H](Cc1ccc(O)cc1)C(=O)O; pXylylene = c1cc(C[*:2])ccc1C[*:1]; Dap = NC[C@H](N)C(=O)O; Mpa = O=C(O)CCS; Sar = CNCC(=O)O

T1: Vasoactive intestinal peptide receptor 2 (VIPR2), human, on the human VIPR2-expressing cell line (Catalog No. … (human, UniProt P41587 24-438))
T1 construct: whole, on cells; also called VPAC2; VIPR2-expressing cells
T1 sequence (looked up): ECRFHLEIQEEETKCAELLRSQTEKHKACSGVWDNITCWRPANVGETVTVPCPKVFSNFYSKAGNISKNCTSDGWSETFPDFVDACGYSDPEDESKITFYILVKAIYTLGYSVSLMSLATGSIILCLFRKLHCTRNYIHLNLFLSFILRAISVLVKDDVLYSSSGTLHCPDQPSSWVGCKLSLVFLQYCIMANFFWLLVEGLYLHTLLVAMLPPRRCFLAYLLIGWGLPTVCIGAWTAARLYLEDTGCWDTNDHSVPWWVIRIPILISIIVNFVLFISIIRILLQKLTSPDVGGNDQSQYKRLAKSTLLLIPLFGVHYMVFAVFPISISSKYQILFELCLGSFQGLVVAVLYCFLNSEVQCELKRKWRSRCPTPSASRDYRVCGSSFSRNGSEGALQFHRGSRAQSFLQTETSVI

B1: Seq-5 (peptide)
peptide: XYLPKYLCDLI
modifications: Mpa at position 1; NmeTyr at position 2; thioether bridge via DBoXy (1,2-bis(bromomethyl)benzene) linker (1-8); side-chain amide(5-9) between Lys5 and Asp9; C-terminal amide (NH2)
notes: Synthetic bicyclic peptide
B2: Seq-4 (peptide)
peptide: XYLPKYLCDLI
modifications: Mpa at position 1; NmeTyr at position 2; thioether bridge via DIHex (1,6-diiodohexane) linker (1-8); side-chain amide(5-9) between Lys5 and Asp9; C-terminal amide (NH2)
notes: Synthetic bicyclic peptide
B3: Seq-2 (peptide)
peptide: XYLPKYLCDLI
modifications: Mpa at position 1; NmeTyr (N-methyl-Tyr) at position 2; thioether bridge via DIBut (1,4-diiodobutane) linker (1-8); side-chain amide(5-9) between Lys5 and Asp9; C-terminal amide (NH2)
notes: Synthetic bicyclic peptide
B4: Seq-1 (peptide)
peptide: [Mpa]PPYLPKYLCDLI-NH2
modifications: disulfide 1-10; lactam 7-11
SMILES: CC[C@H](C)[C@H](NC(=O)[C@H](CC(C)C)NC(=O)[C@@H]1CC(=O)NCCCC[C@@H]2NC(=O)[C@@H]3CCCN3C(=O)[C@H](CC(C)C)NC(=O)[C@H](Cc3ccc(O)cc3)NC(=O)[C@@H]3CCCN3C(=O)[C@@H]3CCCN3C(=O)CCSSC[C@H](NC(=O)[C@H](CC(C)C)NC(=O)[C@H](Cc3ccc(O)cc3)NC2=O)C(=O)N1)C(N)=O
notes: Synthetic bicyclic peptide derived from VIpep-3
B5: Seq-7 (peptide)
peptide: [Mpa][NMeY]LPKYLCDLI-NH2
modifications: linker 1-8 via pXylylene; lactam 5-9
SMILES: CC[C@H](C)[C@H](NC(=O)[C@H](CC(C)C)NC(=O)[C@@H]1CC(=O)NCCCC[C@@H]2NC(=O)[C@@H]3CCCN3C(=O)[C@H](CC(C)C)NC(=O)[C@H](Cc3ccc(O)cc3)N(C)C(=O)CCSCc3ccc(cc3)CSC[C@H](NC(=O)[C@H](CC(C)C)NC(=O)[C@H](Cc3ccc(O)cc3)NC2=O)C(=O)N1)C(N)=O
notes: Synthetic bicyclic peptide
B6: Seq-6 (peptide)
peptide: XYLPKYLCDLI
modifications: Mpa at position 1; NmeTyr at position 2; thioether bridge via DBmXy (1,3-bis(bromomethyl)benzene) linker (1-8); side-chain amide(5-9) between Lys5 and Asp9; C-terminal amide (NH2)
notes: Synthetic bicyclic peptide
B7: Seq-10 (peptide)
peptide: Ac-CPPYLPKYLCDLI-NH2
modifications: disulfide 1-10; lactam 7-11
SMILES: CC[C@H](C)[C@H](NC(=O)[C@H](CC(C)C)NC(=O)[C@@H]1CC(=O)NCCCC[C@@H]2NC(=O)[C@@H]3CCCN3C(=O)[C@H](CC(C)C)NC(=O)[C@H](Cc3ccc(O)cc3)NC(=O)[C@@H]3CCCN3C(=O)[C@@H]3CCCN3C(=O)[C@@H](NC(C)=O)CSSC[C@H](NC(=O)[C@H](CC(C)C)NC(=O)[C@H](Cc3ccc(O)cc3)NC2=O)C(=O)N1)C(N)=O
notes: Synthetic bicyclic peptide
B8: Seq-3 (peptide)
peptide: XYLPKYLCDLI
modifications: Mpa at position 1; NmeTyr at position 2; thioether bridge via DIPen (1,5-diiodopentane) linker (1-8); side-chain amide(5-9) between Lys5 and Asp9; C-terminal amide (NH2)
notes: Synthetic bicyclic peptide
B9: VIpep-3 (peptide)
peptide: Ac-CPPYLPRRLCTLLLRS-OH
modifications: disulfide 1-10
SMILES: CC(=O)N[C@H]1CSSC[C@@H](C(=O)N[C@H](C(=O)N[C@@H](CC(C)C)C(=O)N[C@@H](CC(C)C)C(=O)N[C@@H](CC(C)C)C(=O)N[C@@H](CCCNC(=N)N)C(=O)N[C@@H](CO)C(=O)O)[C@@H](C)O)NC(=O)[C@H](CC(C)C)NC(=O)[C@H](CCCNC(=N)N)NC(=O)[C@H](CCCNC(=N)N)NC(=O)[C@@H]2CCCN2C(=O)[C@H](CC(C)C)NC(=O)[C@H](Cc2ccc(O)cc2)NC(=O)[C@@H]2CCCN2C(=O)[C@@H]2CCCN2C1=O
notes: also called Vlpep-3
B10: Seq-8 (peptide)
peptide: [Mpa][NMeY]L[Sar]CYLCSLI-NH2
modifications: linker 1-5-8 via TBMB
SMILES: CC[C@H](C)[C@H](NC(=O)[C@H](CC(C)C)NC(=O)[C@H](CO)NC(=O)[C@@H]1CSCc2cc3cc(c2)CSC[C@H](NC(=O)CN(C)C(=O)[C@H](CC(C)C)NC(=O)[C@H](Cc2ccc(O)cc2)N(C)C(=O)CCSC3)C(=O)N[C@@H](Cc2ccc(O)cc2)C(=O)N[C@@H](CC(C)C)C(=O)N1)C(N)=O
notes: Synthetic bicyclic peptide
B11: Seq-9 (peptide)
peptide: [Mpa][NMeY]L[Sar]CYLC[Dap]LI-NH2
modifications: linker 1-5-8 via TBMB
SMILES: CC[C@H](C)[C@H](NC(=O)[C@H](CC(C)C)NC(=O)[C@H](CN)NC(=O)[C@@H]1CSCc2cc3cc(c2)CSC[C@H](NC(=O)CN(C)C(=O)[C@H](CC(C)C)NC(=O)[C@H](Cc2ccc(O)cc2)N(C)C(=O)CCSC3)C(=O)N[C@@H](Cc2ccc(O)cc2)C(=O)N[C@@H](CC(C)C)C(=O)N1)C(N)=O
notes: Synthetic bicyclic peptide

The binders below were run against T1, Vasoactive intestinal peptide receptor … (assay: summary of the Examples (binding to VIPR2-expressing cells)).

Binding result, binds:
B1
B2
B3
B4
B5
B6
B7
B8

What follows are binders tested against T1, Vasoactive intestinal peptide receptor … (assay: competitive cell-based ELISA on human VIPR2-expressing cells; competitor Biotin-VIpep-3 (1000 nM)).
Procedure: (§1) To confirm the binding activity of the amino acid substituted peptides to VIPR2, a competitive binding assay was constructed using the cell-based ELISA method shown in FIG. 3. The following is a brief description of this cell-based ELISA method. Human VIPR2-expressing cell line (Catalog No. HTS079RTA, manufactured by EUROFINS) was spread in a 96-well plate using the culture medium provided by the manufacturer, and cultured overnight at 37° C. in a CO₂ incubator. After washing the plates with HBSS containing 0.1% BSA, the mixtures containing Biotin-VIpep-3 (1000 nM) and any concentration of amino acid substituted peptide or VIpep-3 were prepared and added at 50 μL/well. After reaction on ice for 60 minutes, the plate was washed with 0.1% BSA containing HBSS. Biotin-VIpep-3 bound to VIPR2-expressing cells adhering to the plate was detected with SA-HRP (catalog no. ab7403, Abcam). For HRP quantification, SuperSignal ELISA Pico Chemiluminescent Substrate (Catalog No. 37070, ThermoFisher) was used to measure chemiluminescence values. […] In other words, the binding activity of amino acid substituted peptides and VIpep-3 to VIPR2 is detected as a competitive inhibitory activity against Biotin-VIpep-3 binding. […] Then, using the 50% inhibitory activity value of VIpep-3 as 1, the relative inhibitory activity values of the amino acid-substituted peptides were calculated.

Binding result, binds:
B9

What follows are binders tested against T1, Vasoactive intestinal peptide receptor … (assay: competitive cell-based ELISA on human VIPR2-expressing cells; competitor Biotin-VIpep-3 (1000 nM), N=4).
Procedure: as §1

Binding result, binds:
B10
B11
